Here are results for ten sequences from article PMC2984483.

Conditions in all cases: EMSA: 0.1 ng 32P probe, 15 ul, 30 min at 25 C (stated for GadE/RcsBD56E), 6% native PAGE; H-NS: 100-200 ng PCR fragment plus pBR322 digest, 15 min room …
(In EMSA bound probe runs differently from free probe, usually more slowly.)

For data set [1], the target named is T1, H-NS-His6 (Escherichia coli) (UniProt P0ACF8).
T1 sequence: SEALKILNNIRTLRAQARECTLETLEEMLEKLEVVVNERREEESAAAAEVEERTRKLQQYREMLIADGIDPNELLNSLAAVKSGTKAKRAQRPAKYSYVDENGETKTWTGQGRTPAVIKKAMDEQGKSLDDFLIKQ
The data set can be described thus: competitive EMSA.

Data set [2] concerns the target T2, Strep-AdiY (Escherichia coli) (UniProt P33234).
T2 sequence: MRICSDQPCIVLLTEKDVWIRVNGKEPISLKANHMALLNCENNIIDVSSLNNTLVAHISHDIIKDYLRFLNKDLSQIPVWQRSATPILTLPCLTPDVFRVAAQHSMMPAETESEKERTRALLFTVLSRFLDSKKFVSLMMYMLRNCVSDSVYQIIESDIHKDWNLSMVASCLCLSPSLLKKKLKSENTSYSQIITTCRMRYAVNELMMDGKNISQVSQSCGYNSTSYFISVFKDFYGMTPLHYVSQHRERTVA
Description: EMSA.

The target in data set [3] is T3, His6-RcsBD56E;GadE-His6 D56E (Escherichia coli;Escherichia coli) (UniProt P0DMC7+P63204).
T3 sequence 1: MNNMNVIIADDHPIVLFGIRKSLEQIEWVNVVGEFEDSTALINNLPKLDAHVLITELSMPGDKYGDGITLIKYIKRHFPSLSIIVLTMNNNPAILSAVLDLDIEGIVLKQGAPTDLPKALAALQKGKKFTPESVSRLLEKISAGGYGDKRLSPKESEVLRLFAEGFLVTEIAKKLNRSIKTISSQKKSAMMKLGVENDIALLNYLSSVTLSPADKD
T3 sequence 2: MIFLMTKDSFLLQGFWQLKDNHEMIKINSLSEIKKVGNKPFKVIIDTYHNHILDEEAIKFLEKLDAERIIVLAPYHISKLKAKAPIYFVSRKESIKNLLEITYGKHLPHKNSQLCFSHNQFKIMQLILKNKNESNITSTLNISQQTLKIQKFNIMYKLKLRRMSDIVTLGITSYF
Description: EMSA.

In data set [4] the target is T4, HdfR-His6 (Escherichia coli) (UniProt P0A8R9).
T4 sequence: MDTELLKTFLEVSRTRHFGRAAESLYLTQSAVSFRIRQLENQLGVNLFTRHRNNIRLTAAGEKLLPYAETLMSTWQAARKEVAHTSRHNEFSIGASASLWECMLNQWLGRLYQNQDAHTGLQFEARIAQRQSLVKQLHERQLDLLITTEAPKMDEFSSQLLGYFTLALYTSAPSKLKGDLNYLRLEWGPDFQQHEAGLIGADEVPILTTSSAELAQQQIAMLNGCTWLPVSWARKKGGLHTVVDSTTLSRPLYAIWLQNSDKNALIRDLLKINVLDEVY
The data set can be described thus: EMSA.

With “TTGCTCATGCAAAGACTAACAATCCATTAAAATAGTAAGTGCTCCGGACAATTTTCCATGGATTATTTTCTGAACATTTTTCTTTGGCAAAGATGATGAATTTTGATGGTAAGGAATATTACTTCTGGTTCTCAGTAAAATCCTTTCGTAATACTATGTAATCAAGAAGTTTATGGCTGGTAAAAATAACGTCTTGCATTCACCAATAATATGTAAATAAACCCATCTATAGATGGTAAAAATAGGTTGTGGCAATTATCATTGCATCATTCCCTTTTCGAATG (double strand) [cadC promoter]”, the binding entry in data set [1] is given as “binds”. On to “ATGCCAAAAACGCGTCTAAGAATGCAGTCGATTTAATAAAAATTTCCTAATTGCAGTATCTGATGCATCTGTAACTCATTGTATTGAAATAAAAATATCTGATTTTGATATTTTCCATCAACATGACATATACAGAAAACCAGGTTATAACCTCAGTGTCG (double strand) [hdeABD promoter]”, for which the binding result in data set [2] is reported as “no binding”.

Regarding “AATGATACTTGTCTGAAAAACAGATTTACGACGATATAAAATAATAATACTTATATGTTCGCTGATTTTAAGCACCGAGACTATCCGGTCTTTTACCAAATAATGAAGAATAATCCCTCCCTGGAAGATAATTGTAAAAAACAACAGCATAAGAATTAATCTTAGGATAAATTTTTATTTATCATGGCCTTTTGAACGCTGAAAAGTAGCGCTCTGCAAAGTAAACCCCGCTATAGTTATGCTATGCATTTGTCTTTAATGATATCTCGTCATTATATTAACAGGATGAAATTATCATTA (double strand) [yhiM promoter]”, the binding entry in data set [3] and in data set [1] was “binds” each time. For the sequence “TTATATATCCATGTTGGCGATAATCCCTTTGTATGTACTGTGCATCATCGCTATTACAAATCCTAATAATTCATTTCCACACAGGATAAGTAGATGAAGAAAAAAATTGAATC (double strand) [ydeP promoter]”, the binding result in data set [1] is “binds”. With “ATCCTGCACGCTCCTAATTCTTTGACCGAGCTAGTTATGGCGCGGAGTATTAGTTACGCTTGACAGAGTGTAAAACAAAACATTTAAATCATAACGACAAATAATTTTGCGGAGAGCACTGTGGATACGGAATTGTTAAAAACTTTCCTGGAAGTTAGCCGAACGCGTCACTTTGGTCGAGCGGCTGAATCGCTCTATCTGACCCAGTCAGCAGTGAGCTTTCGAATCAGACAACTGGAAAATCAACTGGGTGTGAACCTT (double strand) [hdfR promoter]”, in data set [1], the binding result is “binds”. In the case of “GGTCGCTCCTTGCCTGAAGTCATCCTTCAATACGTTAAGGGCGAAATCATACCGTGGGGCAATGAGTTATTACGGGCGTTTATTGCGAAGGGAGGGTGACGAAATGCACAGAAAACAAAA (double strand) [aslB promoter]”, the results for the binding result in data set [4], in data set [3] and in data set [2] were “no binding”, “binds” and “no binding”, respectively. “GAATAAAAATAGATTTTATGTACTTTTAAAACAATGCACTATATTATGGGGTGATGGATATTCATGTCACGCCCCAAAATTAACTGAGTTCACCTAAACAGAAAGGATATAAACATCAGACAGGTTTACGTTACTATCAGGCATATCACCTCAGAATCAGATGAAAACTATAAAGAAATATCTATTATGGTTTTAA (double strand) [slp-dctR promoter]”: the binding result is “no binding” in data set [2] and “binds” in data set [1]. “TCGTTATGCAGCGATATTTTTTGCTGTTCATGATAAATATCGAATGAACGACGAATGAGGATCACCGAGCAGACATGAGTCATGATTATCCCTTATATTTCATACTGCGATTATTTCAATTTCAGTATACTAATGAAATGATGCCAGACTGTTTCTTAGCGCAAAAACTGCCAGATTTGGTAGGACCAAAATTTATCCACAAAGTAGTTTTGCATAACAGTTAATTGATAATAAGTAAATGCAGCACGAATATATTTTCGCACAGCGTATAGCTTA (double strand) [gadW promoter]”: the binding entry in data set [1] is listed as “binds”. Take “TGGCCTTAGGCCTTTTGAGTATGGCAACGTTTTCATAAAAATTGCTGCAAACAAAAATGTCATACTTTTTGCGCGGCCCCACCCCGCGCTTTTTTTTGCCTGTTATTTATCCTGTAAAAAAATATGTACATGAGAAATTACTATAAAAATTTGTACTATTAGTAAAAC (double strand) [adiY promoter]”: the binding entry in data set [1] is on record as “binds”. Take “CGCATAATTTCCAGCAATCTTTGTTTATTTGCAATTATTTTTGTTGGGCTTTTTGTAGGTTATTTGTACAGCAAAATGGCGCTTGTACATCTATTTCCCCCAATGCAGGATGATAAATATCACGGGAGAATAGAGAATCATCAATCAGGTAAGAGTCTGGAATTTCACACTGTACCCTTTATACTGCCCT (double strand) [rcsD promoter]”: the binding entry in data set [1] was “binds”.
